The text below walks through data of PMC10397247.

Where two headings read alike, the source gives them in different places.

In assay [1] the target is T1, P9bHq.
T1 chain: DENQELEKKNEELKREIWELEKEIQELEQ
In words: two-hybrid library CCNG1.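 Also: natural log of median RNA to DNA barcode read ratio; higher means stronger binding.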

Assay [2] addresses T2, P8bHq.
T2 chain: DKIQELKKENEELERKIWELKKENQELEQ
In words: two-hybrid library CCNG1.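 Also: natural log of median RNA to DNA barcode read ratio; higher means stronger binding.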

Assay [3] deals with T3, P6-AA-1HGe-H.
T3 chain: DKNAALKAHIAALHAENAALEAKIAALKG
In words: two-hybrid library CCmax.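 Also: natural log of median RNA to DNA barcode read ratio; higher means stronger binding.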 Particulars: mean of both orientations.

Assay [4] has as its target T4, P6-AA-1HGe-S.
T4 chain: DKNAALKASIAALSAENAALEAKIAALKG
In words: two-hybrid library CCmax.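 Also: natural log of median RNA to DNA barcode read ratio; higher means stronger binding.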 Particulars: mean of both orientations.

The target of assay [5] is T5, P6-AA-1HGe-W.
T5 chain: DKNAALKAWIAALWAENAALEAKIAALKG
In words: two-hybrid library CCmax.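 Also: natural log of median RNA to DNA barcode read ratio; higher means stronger binding.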 Conditions: mean of both orientations.

Assay [6] addresses T6, P6-AA-1HGe-T.
T6 chain: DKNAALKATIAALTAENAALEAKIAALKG
In words: two-hybrid library CCmax.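 Also: natural log of median RNA to DNA barcode read ratio; higher means stronger binding.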 Particulars: mean of both orientations.

Assay [7] concerns the target T7, P6-AA-1HGe-A.
T7 chain: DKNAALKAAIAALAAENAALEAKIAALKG
In words: two-hybrid library CCmax. Conditions: mean of both orientations.

For assay [8], the target named is T8, P6-AA-1HGe-D.
T8 chain: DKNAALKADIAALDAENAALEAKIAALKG
In words: two-hybrid library CCmax.

For assay [9], the target named is T9, P6-AA-1HGe-R.
T9 chain: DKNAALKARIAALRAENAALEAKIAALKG
In words: two-hybrid library CCmax. Particulars: mean of both orientations.

Assay [10] addresses T10, P6-AA-1HGe-Q.
T10 chain: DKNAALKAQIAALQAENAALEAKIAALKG
In words: two-hybrid library CCmax. Conditions: mean of both orientations.

For assay [11], the target named is T11, P6-AA-1HGe-M.
T11 chain: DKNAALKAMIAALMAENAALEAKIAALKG
In words: two-hybrid library CCmax. Conditions: mean of both orientations.

Assay [12] concerns the target T12, APC4100-AA.
T12 chain: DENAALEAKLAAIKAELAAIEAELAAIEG
In words: two-hybrid library CCmax.

Assay [13] has as its target T13, APC5009-AA.
T13 chain: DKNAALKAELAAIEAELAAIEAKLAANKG
In words: two-hybrid library CCmax. Conditions: mean of both orientations.

Assay [14] deals with T14, APC2981-AA.
T14 chain: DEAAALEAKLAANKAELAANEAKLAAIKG
In words: two-hybrid library CCmax. Particulars: mean of both orientations.

Assay [15] concerns the target T15, APC2724-AA.
T15 chain: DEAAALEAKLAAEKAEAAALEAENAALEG
In words: two-hybrid library CCmax.

In assay [16] the target is T16, APC9806-AA.
T16 chain: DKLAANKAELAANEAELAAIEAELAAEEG
In words: two-hybrid library CCmax. Conditions: mean of both orientations.

The target in assay [17] is T17, APC3881-AA.
T17 chain: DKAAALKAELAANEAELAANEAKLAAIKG
In words: two-hybrid library CCmax. Particulars: mean of both orientations.

Assay [18] concerns the target T18, APC9291-AA.
T18 chain: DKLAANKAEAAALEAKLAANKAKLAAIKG
In words: two-hybrid library CCmax. Particulars: mean of both orientations.

Assay [19] deals with T19, APC9182-AA.
T19 chain: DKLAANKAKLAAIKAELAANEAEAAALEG
In words: two-hybrid library CCmax. Particulars: mean of both orientations.

In assay [20] the target is T20, APC7524-AA.
T20 chain: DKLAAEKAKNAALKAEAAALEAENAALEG
In words: two-hybrid library CCmax. Conditions: mean of both orientations.

The target of assay [21] is T21, APC3265-AA.
T21 chain: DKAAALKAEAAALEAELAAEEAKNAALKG
In words: two-hybrid library CCmax. Conditions: mean of both orientations.

Assay [22] deals with T22, APC3323-AA.
T22 chain: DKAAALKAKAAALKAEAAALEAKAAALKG
In words: two-hybrid library CCmax. Particulars: mean of both orientations.

The target of assay [23] is T23, APC6088-AA.
T23 chain: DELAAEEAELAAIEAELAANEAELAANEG
In words: two-hybrid library CCmax. Particulars: mean of both orientations.

Assay [24] concerns the target T24, APC3354-AA.
T24 chain: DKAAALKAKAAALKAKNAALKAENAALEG
In words: two-hybrid library CCmax. Conditions: mean of both orientations.

In assay [25] the target is T25, APC8401-AA.
T25 chain: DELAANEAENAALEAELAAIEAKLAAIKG
In words: two-hybrid library CCmax. Conditions: mean of both orientations.

Assay [26] has as its target T26, APC542-AA.
T26 chain: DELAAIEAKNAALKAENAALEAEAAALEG
In words: two-hybrid library CCmax. Particulars: mean of both orientations.

In assay [27] the target is T27, APC5531-AA.
T27 chain: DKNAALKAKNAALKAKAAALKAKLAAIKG
In words: two-hybrid library CCmax. Particulars: mean of both orientations.

In assay [28] the target is T28, APC4336-AA.
T28 chain: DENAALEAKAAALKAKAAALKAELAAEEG
In words: two-hybrid library CCmax. Particulars: mean of both orientations.

The target of assay [29] is T29, APC2811-AA.
T29 chain: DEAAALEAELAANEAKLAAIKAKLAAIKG
In words: two-hybrid library CCmax. Particulars: mean of both orientations.

Assay [30] has as its target T30, APC9141-AA.
T30 chain: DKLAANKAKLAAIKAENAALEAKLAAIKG
In words: two-hybrid library CCmax. Conditions: mean of both orientations.

The target of assay [31] is T31, APC8516-AA.
T31 chain: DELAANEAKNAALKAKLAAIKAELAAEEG
In words: two-hybrid library CCmax. Particulars: mean of both orientations.

The target in assay [32] is T32, O3-bA.
T32 chain: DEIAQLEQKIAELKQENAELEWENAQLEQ
In words: two-hybrid library CCNG1.

The target of assay [33] is T33, O6-bA.
T33 chain: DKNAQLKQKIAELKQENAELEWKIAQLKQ
In words: two-hybrid library CCNG1.

The target in assay [34] is T34, O5-bA.
T34 chain: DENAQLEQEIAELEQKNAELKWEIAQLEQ
In words: two-hybrid library CCNG1.

Assay [35] addresses T35, O9-bA.
T35 chain: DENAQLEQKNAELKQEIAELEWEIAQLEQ
In words: two-hybrid library CCNG1.

For assay [36], the target named is T36, O7-bA.
T36 chain: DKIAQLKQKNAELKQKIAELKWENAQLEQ
In words: two-hybrid library CCNG1.

Assay [37] addresses T37, O4-bA.
T37 chain: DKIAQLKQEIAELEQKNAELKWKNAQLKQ
In words: two-hybrid library CCNG1.

Assay [38] has as its target T38, O8-bA.
T38 chain: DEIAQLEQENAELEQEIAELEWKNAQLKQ
In words: two-hybrid library CCNG1.

B1: P8bHq (peptide)
chain: DKIQELKKENEELERKIWELKKENQELEQ
B1: the interaction score in [1] is -1.36; in [2] it was -0.229.

B2: P5-AA-1HGe-T (peptide)
chain: DENAALEATIAALTAKNAALKAEIAALEG
With B2, the interaction score is 2.03 in assay [3]; 1.91 in assay [4]; 1.71 in assay [5]; 2.05 in assay [6]; 2.2 in assay [7]; 1.95 in assay [8]. The interaction score stood at 2.02 in [9], 2.32 in assay [10] and 2.18 in [11].

B3: APC2724-AA (peptide)
chain: DEAAALEAKLAAEKAEAAALEAENAALEG
With B3, the interaction score in assay [12] was -1.68; in assay [13], -1.67; in assay [14], -1.68; in [15] it was -1.55; in assay [16], -1.79; in assay [17] it was -2.62. Besides, the interaction score is -1.76 in assay [18]; -1.95 in assay [19]; -1.54 in [20]; -1.62 in assay [21]; -1.8 in assay [22]; -1.76 in assay [23]. For the same molecule, the interaction score in assay [24] was -1.48; in assay [25], -1.54; in assay [26], -1.75; in assay [27], -1.53; in assay [28] it was -2.23; in [29] it was -1.76. Moreover, the values for the interaction score in assay [30] and in [31] were -3.52 and -1.9, respectively.

B4: P5-AA-1HGe-S (peptide)
chain: DENAALEASIAALSAKNAALKAEIAALEG
In the case of B4, the interaction score in [3] was 1.75; in [4] it was 1.13; in [5] it was 0.993; in [6], 1.76; in [7], 1.91; in assay [8] (mean of both orientations), 0.0672. The interaction score in assay [9] is 2.01; in [10] it was 2.1; in assay [11], 1.86.

B5: P5-AA-1HGe-Y (peptide)
chain: DENAALEAYIAALYAKNAALKAEIAALEG
Take B5: the interaction score in [3] came out at 1.95; in assay [4], 1.94; in [5], 1.32; in assay [6], 2.24; in assay [7], 1.95; in [8] (mean of both orientations), 1.37. In addition, the interaction score stood at 1.82 in [9], 2.22 in assay [10] and 1.95 in [11].

B6: P5-AA-1HGe-A (peptide)
chain: DENAALEAAIAALAAKNAALKAEIAALEG
As for B6, the interaction score is 1.73 in assay [3]; 1.63 in assay [4]; 1.57 in assay [5]; 2.02 in assay [6]; 2.12 in assay [7]; 1.06 in assay [8] (mean of both orientations). The interaction score in assay [9] was 2.03; in [10] it was 2.31; in [11] it was 2.21.

B7: P5-AA-1HGe-Q (peptide)
chain: DENAALEAQIAALQAKNAALKAEIAALEG
As for B7, the interaction score in assay [3] is 2.05; in [4], 2.03; in assay [5], 1.97; in [6], 2.32; in [7] it was 2.25; in [8] (mean of both orientations) it was 1.58. In addition, the interaction score in assay [9] turned out to be 2.05; in assay [10], 2.07; in assay [11], 2.3.

B8: P5-AA-1HGe-R (peptide)
chain: DENAALEARIAALRAKNAALKAEIAALEG
As to B8, the interaction score in [3] is 1.64; in assay [4], 1.48; in [5], 1.25; in [6] it was 1.66; in assay [7], 2.25; in assay [8] (mean of both orientations), 1.74. Also, the results for the interaction score in [9], in assay [10] and in [11] were 1.45, 1.9 and 1.53, respectively.

B9: P5-AA-1HGe-M (peptide)
chain: DENAALEAMIAALMAKNAALKAEIAALEG
Turning to B9, the interaction score is 2.03 in assay [3]; 1.92 in assay [4]; 2.11 in assay [5]; 2.3 in [6]; 2.5 in assay [7]; 1.82 in [8] (mean of both orientations). Moreover, the figures for the interaction score in assay [9], in assay [10] and in assay [11] were 1.93, 2.27 and 2.35, respectively.

B10: P5-AA-1HGe-W (peptide)
chain: DENAALEAWIAALWAKNAALKAEIAALEG
For the molecule B10, the interaction score in assay [3] worked out at 1.34; in assay [4] it was 1.46; in [5], 0.892; in assay [6], 2.11; in assay [7] it was 1.97; in assay [8] (mean of both orientations) it was 0.67. Further, the interaction score in assay [9] was found to be 1.42; in assay [10] it was 2.17; in [11], 1.92.

B11: O3-bA (peptide)
chain: DEIAQLEQKIAELKQENAELEWENAQLEQ
On to B11, for which the interaction score in assay [32] is -0.685; in assay [33] it was -0.618; in assay [34], -0.75; in assay [35] it was -0.712; in assay [36], -0.831; in assay [37], 2.34. For the same molecule, the interaction score in [38] was -1.12.

B12: P5-AA-1HGe-D (peptide)
chain: DENAALEADIAALDAKNAALKAEIAALEG
With B12, the interaction score is 0.69 in assay [3]; -0.145 in assay [4]; -0.238 in [5]; 1.14 in [6]; 0.812 in assay [7]; -1.28 in [8] (mean of both orientations). Besides, the results for the interaction score in [9], in assay [10] and in [11] were 1.62, 1.12 and 0.758, respectively.
